Target: taxol-stabilized microtubules (control, undigested, with E-hooks) (porcine) (UniProt P02550)
Sequence (P02550 whole entry, chain 1 of 2): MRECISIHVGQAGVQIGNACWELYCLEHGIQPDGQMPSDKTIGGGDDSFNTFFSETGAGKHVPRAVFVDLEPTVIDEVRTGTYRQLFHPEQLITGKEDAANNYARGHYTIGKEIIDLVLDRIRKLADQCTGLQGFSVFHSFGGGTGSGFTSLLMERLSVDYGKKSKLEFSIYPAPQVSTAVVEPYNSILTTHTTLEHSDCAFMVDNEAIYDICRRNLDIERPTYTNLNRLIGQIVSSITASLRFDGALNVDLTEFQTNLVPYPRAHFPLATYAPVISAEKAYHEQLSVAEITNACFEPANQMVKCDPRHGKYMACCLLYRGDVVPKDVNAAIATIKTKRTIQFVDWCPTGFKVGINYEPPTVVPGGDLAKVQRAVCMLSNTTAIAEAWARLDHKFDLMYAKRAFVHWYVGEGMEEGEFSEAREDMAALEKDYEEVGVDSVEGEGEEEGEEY
Sequence (chain, as listed by the source, chain 2 of 2): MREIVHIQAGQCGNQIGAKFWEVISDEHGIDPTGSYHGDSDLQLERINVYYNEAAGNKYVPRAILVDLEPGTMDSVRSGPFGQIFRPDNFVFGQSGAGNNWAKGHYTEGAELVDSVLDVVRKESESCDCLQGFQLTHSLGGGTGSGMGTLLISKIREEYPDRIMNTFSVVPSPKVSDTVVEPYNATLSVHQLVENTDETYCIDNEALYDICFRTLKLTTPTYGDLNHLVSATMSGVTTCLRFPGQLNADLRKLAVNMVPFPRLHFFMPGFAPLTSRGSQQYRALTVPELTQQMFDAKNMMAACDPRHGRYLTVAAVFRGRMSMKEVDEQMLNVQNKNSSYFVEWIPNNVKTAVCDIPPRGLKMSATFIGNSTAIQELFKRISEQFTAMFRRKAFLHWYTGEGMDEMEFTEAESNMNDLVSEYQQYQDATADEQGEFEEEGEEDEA

K m(MT) of the microtubule-stimulated ATPase activity of GST–dynein331 (0–2 µM microtubules), with 200 nM She1: 0.04 µM
K m(MT) of the microtubule-stimulated ATPase activity of GST–dynein331 (0–2 µM microtubules), without She1: 0.1 µM
Substance: GST–dynein331, artificially dimerized (via glutathione S-transferase) dynein motor domain fragment, P36022 1-4092

Reference: article PMC5732302
